Data taken from the supplement of paper PMC10724198.
± gives the standard deviation of the averaged measurements.

tested on: Saccharomyces cerevisiae; assay: protein stability index of tFT-peptide fusion (C-terminal peptide) (PSI (0-1 scale)); higher = more stable (slower turnover); details: genetic background: wild type; temperature: 30 C
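Also: PSI is a weighted mean of sequencing reads over stability bins, variants kept only with over 10 reads, mCherry proximal and sfGFP distal, peptide attached via GGGS linker.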

Sequence	protein stability index
PAVIVAPYSQGE	0.701 ± 0.025
LREENKKSETKR	0.705 ± 0.027
SVHPVNRDPSRH	0.6904 ± 0.0014
VCGGRLVGWGGW	0.729 ± 0.1
AKSCNSVHALRT	0.668 ± 0.11
AQPLARTALPRR	0.775 ± 0.019
STGMYFYTHYLL	0.632 ± 0.024
SISLSLSQSDRR	0.614 ± 0.016
YASKNPSVVIFG	0.68 ± 0.018
WFLFIPLACLRP	0.592 ± 0.0079
CTFCLGSATVRT	0.702 ± 0.04
KRIKTEKRRSKK	0.748 ± 0.046
FNCCSYTSPASG	0.649 ± 0.015
VAVGHWGIVPLW	0.725 ± 0.08
KKRKNNKIRKKK	0.723 ± 0.0053
GVGCGGACRPVG	0.662 ± 0.09
NKKDCFRNRKWE	0.593 ± 0.03
FSAFWLACFFGV	0.717 ± 0.062
GAKQSSKRPRAS	0.719 ± 0.028
GLAPPRPYPPPA	0.728 ± 0.065
LAKVNSLLGFSK	0.734 ± 0.037
AIRENISIRLNC	0.482 ± 0.026
PVVFAGLLLHGH	0.694 ± 0.042
MAWTGIDAEVCV	0.67 ± 0.028
KEATTEKNTTRA	0.6895 ± 0.0023
GKSGGTGAGEKR	0.661 ± 0.046

Sequence	protein stability index
AAGGASRHLSGS	0.71 ± 0.09
AEEAEVAGPRHC	0.777 ± 0.18
HSPPPPPALLPL	0.66 ± 0.028
NSGSQSQDKQER	0.658 ± 0.013
LSNLQPPISVPL	0.6473 ± 0.006
SLPPTLPPRSCP	0.6211 ± 0.0019
SAGGARSLQMFC	0.66 ± 0.027
TLVALGFIYASG	0.572 ± 0.0048
RPPSLCSYSICV	0.585 ± 0.0092
AADVALQFKPRT	0.658 ± 0.027
AFGRLNTWFCFP	0.719 ± 0.037
LPRFRNRFPRRW	0.664 ± 0.036
KIKKKKKNTKTK	0.666 ± 0.047
VRRGGGGGGYGI	0.72 ± 0.031
TLRKTTRHRRNA	0.737 ± 0.069
LPYSAPPISLTN	0.702 ± 0.011
SLLPGGHRWAGI	0.659 ± 0.025
RTDRIVGGNERV	0.661 ± 0.0072
FPGVGARAGVGV	0.697 ± 0.027
GHVETQTRMASG	0.789 ± 0.19
PPLPSAPSTYPA	0.634 ± 0.012
VPSPLPLPPLAP	0.722 ± 0.036
AFYFGQFEFWRC	0.698 ± 0.034
TGTATGTEGANY	0.698 ± 0.022
PPGLPPIRCPPT	0.631 ± 0.037
SFVDDILVRPIA	0.715 ± 0.05

Sequence	protein stability index
FVVRGVFVSGFW	0.582 ± 0.019
VQPAGLEFGPLS	0.6457 ± 0.0015
VGSVVRGLVGPY	0.717 ± 0.19
KNSNIDKMIRKE	0.6973 ± 0.0012
QKCNPGKRVDRT	0.692 ± 0.0091
GVGYRLGACPDR	0.695 ± 0.053
LFLARLSGHFGA	0.728 ± 0.16
GCCAPWTFDDDL	0.7117 ± 0.0065
HPPLSPPSALFL	0.719 ± 0.069
PAGSRGRHSRER	0.712 ± 0.061
WFLVQQCGQMDR	0.711 ± 0.022
GEYRECVSWAGG	0.721 ± 0.07
PCVISRPPRLFP	0.752 ± 0.06
IKKNKQNKIKRN	0.699 ± 0.016
RGVLVTVNWVSG	0.499 ± 0.038
LLSASPASLSFL	0.706 ± 0.054
SVDPIFLNSGLG	0.693 ± 0.045
YLPLPPLTPPPR	0.776 ± 0.036
CTRRRLLVPRVK	0.599 ± 0.028
NRNIRKKKIKNK	0.668 ± 0.054
YLFSLSSSLFIL	0.56 ± 0.0085
EAVRASSPAGLP	0.7017 ± 0.0023
RAWELPRLRGRE	0.6682 ± 0.0039
HNMSDARRPSNI	0.702 ± 0.021
GAPLFTYVIVRR	0.621 ± 0.07
AGSSFDLGSGYS	0.724 ± 0.083

Sequence	protein stability index
LPAPSPPSFPAP	0.743 ± 0.099
LLPPTLHPPHLP	0.751 ± 0.0096
AGYEEWVRDARV	0.73 ± 0.0075
GSFPNSADQTFD	0.659 ± 0.014
TSGRTLVNDKCT	0.716 ± 0.012
KKTEGATEERKR	0.692 ± 0.015
KEILATRQKSST	0.738 ± 0.04
AGGPGWGALVGA	0.645 ± 0.047
RTKVSENLNEKK	0.681 ± 0.032
RITKKRQQIKKR	0.7482 ± 0.0028
SPPRSSRTHAPP	0.7108 ± 0.006
NKIKKTQKKKLG	0.766 ± 0.1
PVASFLACSIAG	0.602 ± 0.032
VSVIPIVISLSL	0.528 ± 0.036
LLPSAAPPPQFL	0.686 ± 0.035
GWDRDQKPENKE	0.738 ± 0.045
HEVRGVFWNPRF	0.712 ± 0.053
KTVKNGKEVKIH	0.635 ± 0.12
RFLESNGRPFHK	0.673 ± 0.0088
RKEGRRGRRGAK	0.691 ± 0.069
QGVLKYPRPSPP	0.7071 ± 0.0016
GSDVPCFLSLSY	0.711 ± 0.02
PDLLHLPAHRHA	0.6722 ± 0.0055
